Laboratory results taken from publication PMC11302929.
Where “and” joins values, the source holds several entries; their conditions need not be identical. Identical values can stand only once.

Legend:
[1] = target: recombinant soluble NDV HN ectodomain including the stalk domain, without oligomerization domain (HN-M) (Newcastle disease virus); test: SEC; Superdex 200 Increase 10/300 GL column, freshly purified NDV HN proteins
[2] = target: recombinant soluble NDV HN ectodomain with tetrabrachion tetramerization domain (HN-TE) (not stated | Newcastle disease virus); test: as above

Substance | stoichiometry N [1] | stoichiometry N [2]
recombinant soluble NDV HN ectodomain including the stalk domain, without oligomerization domain (HN-M) (domain or fragment) | 2 and 4 | –
recombinant soluble NDV HN ectodomain with tetrabrachion tetramerization domain (HN-TE) | – | 4
